Test results published in paper PMC10662749.
“Also recorded” adds a separate entry of the source.

Conditions: glycan changed form

Row | Substance | other: pseudovirus infectivity | other: neutralisation sensitivity, other: maximum % neutralisation | other: proteolytic processing | other: pseudovirus infectivity, fold_change
1 | SARS-CoV-2 spike, B.1.617.2 (Delta): 20 μM swainsonine | no change |  |  | 
2 | SARS-CoV-2 spike, D614G: 50 μM kifunensine | decreases | no change, 55 ± 9 vs 64 ± 4 | no change | 
3 | SARS-CoV-2 spike, B.1.617.2 (Delta): 50 μM kifunensine | decreases |  | no change | 
4 | SARS-CoV-2 spike, D614G: 20 μM swainsonine | no change |  |  | 
5 | SARS-CoV-2 spike, BA.1 (Omicron): 20 μM swainsonine |  | no change, 74 ± 7 vs 54 ± 7 | no change | no change
6 | SARS-CoV-2 spike, BA.1 (Omicron): 50 μM kifunensine |  |  | no change | abolishes
7 | SARS-CoV-2 spike, BA.1 (Omicron): GnTI- cells |  |  | no change | abolishes
8 | SARS-CoV-2 spike, B.1.617.2 (Delta): GnTI- cells | decreases |  | no change | 

Same assay, conditions: glycan lost

Row | Substance | other: neutralisation sensitivity | other: neutralisation sensitivity, other: maximum % neutralisation | other: proteolytic processing | other: pseudovirus infectivity, fold_change | other: pseudovirus infectivity | other: neutralisation sensitivity, fold_change | other: pseudovirus particle yield (p24)
9 | SARS-CoV-2 spike, D614G: N17Q | no change |  |  |  |  |  | 
10 | SARS-CoV-2 spike, D614G: N657Q | no change | no change, 58 ± 4 vs 64 ± 4 |  |  |  |  | 
11 | SARS-CoV-2 spike, BA.1 (Omicron): N234Q |  | no change, 87 ± 4 vs 79 ± 7 |  |  |  |  | 
12 | SARS-CoV-2 spike, BA.1 (Omicron): N61Q | no change | no change, 73 ± 10 vs 79 ± 7 |  |  |  |  | 
13 | SARS-CoV-2 spike, D614G: N165Q | no change |  |  |  |  |  | 
14 | SARS-CoV-2 spike, BA.1 (Omicron): N343Q | no change | no change, 82 ± 6 vs 79 ± 7 |  |  |  |  | 
15 | SARS-CoV-2 spike, BA.1 (Omicron): N717Q |  |  | decreases |  |  |  | 
16 | SARS-CoV-2 spike, BA.4 (Omicron): N801Q |  |  |  | abolishes |  |  | 
17 | SARS-CoV-2 spike, BA.1 (Omicron): N1158Q | no change | no change, 86 ± 34 vs 79 ± 7 |  |  |  |  | 
18 | SARS-CoV-2 spike, BA.1 (Omicron): N282Q | no change |  |  |  |  |  | 
19 | SARS-CoV-2 spike, BA.1 (Omicron): N74Q | no change | no change, 77 ± 9 vs 79 ± 7 |  |  |  |  | 
20 | SARS-CoV-2 spike, D614G: N1074Q | no change | no change, 61 ± 4 vs 64 ± 4; also recorded: decreases, 45 ± 6 vs 65 ± 7 |  | decreases |  |  | 
21 | SARS-CoV-2 spike, D614G: N1158Q | no change | no change, 63 ± 3 vs 64 ± 4 |  |  |  |  | 
22 | SARS-CoV-2 spike, B.1.617.2 (Delta): N717Q |  |  |  |  | no change |  | 
23 | SARS-CoV-2 spike, D614G: N61Q | no change | no change, 61 ± 4 vs 64 ± 4 | decreases | decreases |  |  | 
24 | SARS-CoV-2 spike, D614G: N234Q |  |  |  |  |  | decreases | 
25 | SARS-CoV-2 spike, BA.1 (Omicron): N1074Q | no change | no change, 86 ± 13 vs 79 ± 7 |  |  |  |  | decreases
26 | SARS-CoV-2 spike, D614G: N1194Q | no change | no change, 66 ± 3 vs 64 ± 4; also recorded: no change, 60 ± 3 vs 65 ± 7 |  |  |  |  | 
27 | SARS-CoV-2 spike, BA.1 (Omicron): N149Q | no change |  |  |  |  |  | 
28 | SARS-CoV-2 spike, BA.1 (Omicron): N122Q | no change | decreases, 36 ± 19 vs 79 ± 7 |  |  |  |  | 
29 | SARS-CoV-2 spike, BA.1 (Omicron): N1173Q | no change | no change, 80 ± 9 vs 79 ± 7 |  |  |  |  | 
30 | SARS-CoV-2 spike, D614G: N709Q | no change | no change, 69 ± 6 vs 64 ± 4 |  |  |  |  | 
31 | SARS-CoV-2 spike, BA.1 (Omicron): N331Q | no change |  |  |  |  |  | 
32 | SARS-CoV-2 spike, BQ.1.1 (Omicron): N801Q |  |  |  | abolishes |  |  | 
33 | SARS-CoV-2 spike, D614G: N616Q | no change | no change, 64 ± 7 vs 64 ± 4 |  |  |  |  | 
34 | SARS-CoV-2 spike, BA.1 (Omicron): N709Q | no change |  |  |  |  |  | 

Row | Substance | other: neutralisation sensitivity | other: neutralisation sensitivity, other: maximum % neutralisation | other: proteolytic processing | other: pseudovirus infectivity, fold_change | other: pseudovirus infectivity | other: neutralisation sensitivity, fold_change | other: pseudovirus particle yield (p24)
35 | SARS-CoV-2 spike, D614G: N1098Q | no change | no change, 69 ± 11 vs 64 ± 4 |  |  |  |  | 
36 | SARS-CoV-2 spike, D614G: N122Q | no change | no change, 62 ± 9 vs 64 ± 4; also recorded: decreases, 29 ± 4 vs 65 ± 7 |  | decreases |  |  | 
37 | SARS-CoV-2 spike, BA.1 (Omicron): N717A |  |  |  | decreases |  |  | 
38 | SARS-CoV-2 spike, D614G: N343Q | no change |  |  | decreases |  |  | 
39 | SARS-CoV-2 spike, D614G: N1134Q | no change | no change, 65 ± 5 vs 64 ± 4; also recorded: no change, 65 ± 4 vs 65 ± 7 |  |  |  |  | 
40 | SARS-CoV-2 spike, D614G: N149Q | no change |  |  |  |  |  | 
41 | SARS-CoV-2 spike, BA.1 (Omicron): N1098Q | no change | no change, 85 ± 7 vs 79 ± 7 |  |  |  |  | decreases
42 | SARS-CoV-2 spike, BA.1 (Omicron): N657Q | no change |  |  |  |  |  | 
43 | SARS-CoV-2 spike, BA.1 (Omicron): N616Q | no change |  |  |  |  |  | 
44 | SARS-CoV-2 spike, BA.1 (Omicron): N801A |  |  |  | abolishes |  |  | 
45 | SARS-CoV-2 spike, BA.1 (Omicron): N603Q | no change |  |  |  |  |  | 
46 | SARS-CoV-2 spike, BA.1 (Omicron): N1134Q | no change | no change, 73 ± 15 vs 79 ± 7 |  |  |  |  | 
47 | SARS-CoV-2 spike, D614G: N603Q | no change | no change, 62 ± 3 vs 64 ± 4 |  |  |  |  | 
48 | SARS-CoV-2 spike, D614G: N74Q | no change | no change, 62 ± 3 vs 64 ± 4 |  |  |  |  | 
49 | SARS-CoV-2 spike, BA.1 (Omicron): N801Q |  |  | decreases |  |  |  | 
50 | SARS-CoV-2 spike, D614G: N331Q | no change | no change, 60 ± 4 vs 64 ± 4 |  |  |  |  | 
51 | SARS-CoV-2 spike, BA.4 (Omicron): N717Q |  |  |  | abolishes |  |  | 
52 | SARS-CoV-2 spike, D614G: N801Q | no change | no change, 63 ± 4 vs 64 ± 4; also recorded: no change, 74 ± 7 vs 65 ± 7 |  | decreases |  |  | 
53 | SARS-CoV-2 spike, BQ.1.1 (Omicron): N717Q |  |  |  | abolishes |  |  | 
54 | SARS-CoV-2 spike, D614G: N282Q | no change |  |  |  |  | decreases | 
55 | SARS-CoV-2 spike, BA.1 (Omicron): N17Q | no change |  |  |  |  |  | 
56 | SARS-CoV-2 spike, BA.1 (Omicron): N165Q | no change | no change, 79 ± 7 vs 79 ± 7 |  |  |  |  | 
57 | SARS-CoV-2 spike, D614G: N717Q | no change | no change, 67 ± 9 vs 64 ± 4; also recorded: decreases, 43 ± 6 vs 65 ± 7 |  | decreases |  |  | 
58 | SARS-CoV-2 spike, D614G: N1173Q | no change | no change, 73 ± 14 vs 64 ± 4; also recorded: decreases, 50 ± 5 vs 65 ± 7 |  |  |  |  | 
59 | SARS-CoV-2 spike, B.1.617.2 (Delta): N801Q |  |  |  |  | no change |  | 
60 | SARS-CoV-2 spike, BA.1 (Omicron): N1194Q | no change | no change, 75 ± 11 vs 79 ± 7 |  |  |  |  | 
